Experiments:
[1] = target: C-terminal helical domain-deleted (ΔH-domain) form of CoMsrA (residues 1-144) (Clostridium oremlandii) (UniProt A8MI53); assay: SEC-MALS; SEC-MALLS; WTC-015S5 column, 20 mM Tris-HCl pH 8.0, 100 mM NaCl, 298 K, 0.5 ml/min; 2.5 mg/ml full-length, 1.5 mg/ml ΔH-domain
[2] = target: C-terminal helical domain-deleted (ΔH-domain) form of CoMsrA (residues 1-144) (Clostridium oremlandii) (UniProt A8MI53); assay: SEC; gel filtration on Superdex S75 16/60 at the final purification step; 10 mM Tris-HCl pH 8.0, 100 mM NaCl
[3] = target: C-terminal helical domain-deleted (ΔH-domain) form of CoMsrA (residues 1-144) (Clostridium oremlandii) (UniProt A8MI53); assay: as above; remark: listed apart in the source
[4] = target: C-terminal helical domain-deleted (ΔH-domain) form of CoMsrA (residues 1-144) (Clostridium oremlandii) (UniProt A8MI53); assay: native gel or EMSA; native-PAGE; 0.2 mg/ml protein in 10 mM Tris-HCl pH 8.0, 100 mM NaCl; without and with 10 mM DTT

Work on “C-terminal helical domain-deleted (ΔH-domain) form of CoMsrA (residues 1-144) (from UniProt A8MI53 1-144) (domain or fragment)” yielded a stoichiometry N [1] of 2, a stoichiometry N [2] of 2 and a stoichiometry N [3] of 4. The stoichiometry N [4] was 2.

Source: publication PMC4333827
